Data on 4 molecules can be found in article PMC4094107 (Nature structural & molecular biology, 2010).

B2: GST-PALB2 truncation 5 (P2T5, amino acids 853-1186) (domain or fragment, human, UniProt Q86YC2 853-1186, looked up)
chain: GNLQLVSELKNPSGSCSVDVSAMFWERAGCKEPCIITACEDVVSLWKALDAWQWEKLYTWHFAEVPVLQIVPVPDVYNLVCVALGNLEIREIRALFCSSDDESEKQVLLKSGNIKAVLGLTKRRLVSSSGTLSDQQVEVMTFAEDGGGKENQFLMPPEETILTFAEVQGMQEALLGTTIMNNIVIWNLKTGQLLKKMHIDDSYQASVCHKAYSEMGLLFIVLSHPCAKESESLRSPVFQLIVINPKTTLSVGVMLYCLPPGQAGRFLEGDVKDHCAAAILTSGTIAIWDLLLGQCTALLPPVSDQHWSFVKWSGTDSHLLAGQKDGNIFVYHYS
B4: GST-PALB2 truncation 1 (P2T1, amino acids 1-200) (domain or fragment, human, UniProt Q86YC2 1-200, looked up)
chain: MDEPPGKPLSCEEKEKLKEKLAFLKREYSKTLARLQRAQRAEKIKHSIKKTVEEQDCLSQQDLSPQLKHSEPKNKICVYDKLHIKTHLDEETGEKTSITLDVGPESFNPGDGPGGLPIQRTDDTQEHFPHRVSDPSGEQKQKLPSRRKKQQKRTFISQERDCVFGTDSLRLSGKRLKEQEEISSKNPARSPVTEIRTHLL

Assay [1] has as its target T1, PALB2 (purified from baculovirus-infected Sf9 cells as GST-PALB2-His) (human, UniProt Q86YC2 1-1186).
T1 sequence (looked up): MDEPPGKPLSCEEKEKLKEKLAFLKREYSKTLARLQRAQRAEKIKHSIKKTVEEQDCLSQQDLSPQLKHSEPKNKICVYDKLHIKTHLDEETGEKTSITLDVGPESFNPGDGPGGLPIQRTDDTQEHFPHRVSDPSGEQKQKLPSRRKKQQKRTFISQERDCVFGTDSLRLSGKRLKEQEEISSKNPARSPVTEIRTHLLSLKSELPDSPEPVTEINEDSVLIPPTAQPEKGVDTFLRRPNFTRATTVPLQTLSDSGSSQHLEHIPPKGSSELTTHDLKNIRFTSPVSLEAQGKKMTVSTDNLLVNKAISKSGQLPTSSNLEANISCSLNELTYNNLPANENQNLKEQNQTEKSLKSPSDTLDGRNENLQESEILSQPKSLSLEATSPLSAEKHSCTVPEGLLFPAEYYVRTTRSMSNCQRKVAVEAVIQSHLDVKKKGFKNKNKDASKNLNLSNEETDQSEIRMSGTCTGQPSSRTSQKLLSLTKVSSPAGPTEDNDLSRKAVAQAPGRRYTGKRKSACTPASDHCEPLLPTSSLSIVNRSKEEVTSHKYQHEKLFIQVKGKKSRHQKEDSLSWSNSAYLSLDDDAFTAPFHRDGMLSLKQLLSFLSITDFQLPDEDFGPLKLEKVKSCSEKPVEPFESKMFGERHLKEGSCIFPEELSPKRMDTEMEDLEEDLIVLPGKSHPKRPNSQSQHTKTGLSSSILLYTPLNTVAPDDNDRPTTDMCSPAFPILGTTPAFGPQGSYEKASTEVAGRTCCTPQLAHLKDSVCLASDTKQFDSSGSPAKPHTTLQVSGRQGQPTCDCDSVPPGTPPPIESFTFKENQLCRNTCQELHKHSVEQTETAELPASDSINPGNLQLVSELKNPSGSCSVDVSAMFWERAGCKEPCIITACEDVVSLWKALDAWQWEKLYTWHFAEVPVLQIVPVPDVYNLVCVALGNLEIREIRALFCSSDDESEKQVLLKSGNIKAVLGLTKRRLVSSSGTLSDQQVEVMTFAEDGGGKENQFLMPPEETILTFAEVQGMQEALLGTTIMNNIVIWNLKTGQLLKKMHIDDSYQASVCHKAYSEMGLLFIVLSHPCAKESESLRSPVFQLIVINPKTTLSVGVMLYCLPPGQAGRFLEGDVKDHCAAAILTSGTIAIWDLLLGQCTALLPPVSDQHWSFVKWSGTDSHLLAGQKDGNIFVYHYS
Kind of assay: co-IP.

The target of assay [2] is B4. As to the kind of experiment: co-IP.
In assay [3] the target is B2. Kind of assay: co-IP.
Another assay deals with T2, Human RAD51 (purified) (human, UniProt Q06609 1-339).
T2 sequence (looked up): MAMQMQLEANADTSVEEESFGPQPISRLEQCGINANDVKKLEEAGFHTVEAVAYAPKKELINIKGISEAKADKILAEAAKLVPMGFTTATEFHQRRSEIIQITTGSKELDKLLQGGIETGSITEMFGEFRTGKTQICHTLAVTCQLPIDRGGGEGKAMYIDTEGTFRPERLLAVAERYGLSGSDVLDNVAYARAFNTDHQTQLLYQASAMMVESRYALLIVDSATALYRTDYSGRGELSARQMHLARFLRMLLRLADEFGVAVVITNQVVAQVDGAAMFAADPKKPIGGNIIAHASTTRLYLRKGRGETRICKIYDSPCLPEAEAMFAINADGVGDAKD
Kind of assay: pull-down.

The target in assay [4] is T1, PALB2 (purified from …). Kind of assay: co-IP. The source holds these as a separate data set.

Like-named read-outs stand apart in the source and are kept apart here.

B1: GST-RAD51 truncation 3 (R51T3, amino acids 184-257) (domain or fragment, human, UniProt Q06609 184-257, looked up)
chain: DVLDNVAYARAFNTDHQTQLLYQASAMMVESRYALLIVDSATALYRTDYSGRGELSARQMHLARFLRMLLRLAD
Turning to B1, the binding result (in the assay with PALB2 (purified from …) [1]; in assay [2]; in assay [3]) was “binds” each time.
Regarding B2, in the assay with Human RAD51 (purified), the binding result is recorded as “binds”.

B3: BRC3/4-GST polypeptide (BRC3 and BRC4 region of BRCA2, amino acids 1409-1596) (domain or fragment, human, UniProt P51587 1409-1596, looked up)
chain: LTATKTEQNIKDFETSDTFFQTASGKNISVAKESFNKIVNFFDQKPEELHNFSLNSELHSDIRKNKMDILSYEETDIVKHKILKESVPVGTGNQLVTFQGQPERDEKIKEPTLLGFHTASGKKVKIAKESLDKVKNLFDEKEQGTSEITSFSHQWAKTLKYREACKDLELACETIEITAAPKCKEMQN
B3: the binding result with PALB2 (purified from …) [4] is listed as “binds”.
On to B4, for which the binding result with Human RAD51 (purified) is listed as “binds”.
